According to the domain aggregation screens of Martell et al. (2025):

Assay: soluble fraction after stress (log2 fold change); higher = more stays soluble; pooled small domains, quantitative proteomics
Conditions: stress: 50 degC
In short: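 After stress at 50°C, the amount of each protein still soluble was measured. This was done on pooled custom libraries of small protein domains, using high-throughput quantitative proteomics. The figure given is a base-two log fold change and stands for aggregation propensity, with higher values meaning more protein stays in solution.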

HMINITALVKQLGGVDISKFNSAFKLLQQGKPLNTISNKVMADTFVALMKNSDEALNTKFRAAFKKI
soluble fraction (log2): -0.272

HMNKSEFLNELEKRIRVLEKNEIKDILAEYSQHIDMRMGSGLSEAEAIKDFGDMDDLAAEILEAY
soluble fraction (log2): 0.08

HMYFGNSLFQARKRSGLSQEGVAEKLGVSRQTVSKWETGETVPDIYQSKKMARLYGVSLDEL
soluble fraction (log2): 0.0951

HMTHANAALTPRHRLKVARLVVDEGWPVSEVAARFQVSWPTVKRWADRYRAGQSMQDRSSRP
soluble fraction (log2): -1.13

HMPSDTNLIGKTGIAYTTLRPGGTALIDDRKVDVVADSEYIEKDKKIKVIRVEGIKVVVTAVK
soluble fraction (log2): 0.091

HMANTAKVNVDTANLRETADENSKILKQLSLNDNLEVVEETGDWYKVKNSNVTGYVRKDLVTVEN
soluble fraction (log2): 0.371

HMTYNEYPEKEMQDLIDKSISQQEQAASQYGYSLGDYVTARYGFQSESDFREYVQGLAEDYMKEKI
soluble fraction (log2): -0.198

HMKVQEVDYGTFLTMVDEGKVNQVDIENSKQITFNTKGDKNKVYITGQVNDPELVNRLYKAGVEFSQEIP
soluble fraction (log2): 0.0729

HMVTVQEGETLSAIAARSGVSVKDLVRANEIRNPDSIQEGQVLFVP
soluble fraction (log2): 0.0612

HMVTDVDYSTFLSQVEEGKVESVTIEDGEILFKGKDENGEARWYITGEMNDPNLVERLKDKVPSFNAPA
soluble fraction (log2): 0.0853

HMRTVEQFQIRKIYAISNALGISDSRADEDELHVLVSGLTGKDSIKELTYREASVVIERLEELQ
soluble fraction (log2): -2.54

HMTKDEIIIQSIIDAAKKLMQQYGLNKTTMEDIAKEAGKGKSTLYHYFKSKEEIFDQVINQEID
soluble fraction (log2): -0.0722

HMDLKTNSQLINELEKKIKRPFDREIKNYLNKNLSTDRMISNNEIDKIILFYSGNNEIPNIEKISLILNDN
soluble fraction (log2): -0.112

HMKNDNIHMMASKINGIALEVGVLTPGMHPKNDLSEGEVGYIVTNLKTTREAKVGDTVTLAKKPAATPLPG
soluble fraction (log2): 0.254

HMSDTLPRLLWNFQMAKRLDEMNGAEKRRYQLVLIHPQASEKERDYASSFAHQARMLGIEVAIRDS
soluble fraction (log2): -0.345

HMENPPISVVIPPSFRGQRIDKALGSLIGDYSRSKIQQWLQSGLVQSAGEPLLPKYTVLGNEQILIAVPS
soluble fraction (log2): 0.00382

HMGISVEVPDLKNMSVAEAGSLLKNSGLSYAVVDSDYVKTISPGKILDQNPGRGLRVKKGRIVYLTINSL
soluble fraction (log2): -1.37

HMVVYFGGPVMLERGIVLHTPDISTKGTINVSDDFALTAHKEILDNINKDTSSLQFKLAIGH
soluble fraction (log2): -0.895

HMTTQERVSYSAFINDVETGRVAKVVISGYTIEGTRTNNSSFVTERPYGVDSNLSEVLMQNSVSIEGKA
soluble fraction (log2): -0.129

HMIGDYALILNIKGGSDWYLGNRVELLFTDGTSKIVTTDKDYNAKKDMVPTQIVTYKVNDNGEYSLKALPT
soluble fraction (log2): -2.01

HMSGGIVRLAVKPWGEVFVDGASRGITPPLKQLTLDAGVHRIEIRNPAGPSWTKDVDVVAGQPTTVSHRF
soluble fraction (log2): 0.0289

HMVAGHLQEKNGQFYAVLSYKDTKGKRRTKWVPTGLMVRGNKKRAEAMLNDIRRKFVPPEQED
soluble fraction (log2): 0.0995

HMVKFGERVKQLRLSAGMTQEQLAERIWVTKAAISNYELSERNPSPETIIKIAGVFGVTTDYLLGLED
soluble fraction (log2): -0.5

HMNNPISMQKLRQVIRLYGQGKGTKSINSMLGVSRNTIKKYLQVYHSSGINYESFLAMSDKELSAVFLV
soluble fraction (log2): -0.398

HMPLQYRLTVQPTPTNARVRLVNSAFTYRPGVALPPGSYIVEVSSSGYGAKRQAVQIADGDVTVPVELEKI
soluble fraction (log2): -0.012

HMATPIAGTKYTLNNTPVYGTEKGPSIGKRSGIYYTWDATVRNGRIRMTNSPARVGVPWQVSFWVEVNKL
soluble fraction (log2): -0.533

HMNVPFGFDEVNGKLVKNEEEQAIISEIKSLKNKGLSLRKIAEALNGRGIATKNGKAWTAVQIQRIA
soluble fraction (log2): -0.0386

HMGGLAHPASGEEMEHLFAHLEGELLKSGFLFPPDKAAGMMRNIRAMLTRADFTDQEVRTLRGMIVALSRG
soluble fraction (log2): -1.66

HMQAGILTDTAAKNARIKKIDTERLEAELDQKRIVIVTGFQGVDRNQNITTLGRGGSDTSAVALAAAVSIT
soluble fraction (log2): 0.185

HMINPASEKQLSFANSLIAKKEGGTETLNHYLHNRKVSSLEELDRKDVSEIINALKFAKEVT
soluble fraction (log2): 0.217

HMKKLPDDANDIIERVSSRLAQKFRFGYHTIDDMKQQAALFAWEGIYDSWDDSRPLENFLWIHVRNRLYN
soluble fraction (log2): -0.00948

HMGGGVSSSLAGNVFKVLLPAGSVVEQGQAVIVLEAMKMETEVNAPKSGSVSSVFVNEGDTVEVGDLLFAI
soluble fraction (log2): -0.17

HMLDYITLSPQELGKLLSAGNGDAAMVYLYMKATGDVTLKQAETQLGMTNQNLAWAESLLKRLGLMD
soluble fraction (log2): -0.556

HMNDGEIAAPVSGTLQSFKVEDGQTVSEGDLVAVMEAMKMETQILATKGGTIRLLVKEGDYLQAGHALMTI
soluble fraction (log2): -0.525

HMKEMTAKQIDMFSDKLSKLESFQSHYIADAGVSVTEYKQAIAAKLQDQFYVEAWGKYLADVGFT
soluble fraction (log2): -0.505

HMLPRNKRIEIALTYIYGLGRHAATVVLKHANISPDKRTDDLDENDVRKLRDAIDANFRVEGDLRR
soluble fraction (log2): -0.0528

HMDKWFPVSSDHKVQVGDYLRTADGLVKVEATHNEYGTFYGKIITAIHDDVVKGETYEYRIDDVQVLA
soluble fraction (log2): -0.0324

HMSDRLRPGDMVVVVGKKKRYPVFSAFDIDFVEAGDVGKVLTVKREEVVVGFPKKGEGTFTPSELNIAH
soluble fraction (log2): -0.597

HMDINEIILKVASEKKTFKTSDVLEALDNNYTKQHVSALISAMVKKGILVKAGSTAKSTYALPENASLL
soluble fraction (log2): -0.264

HMFKNWMPFDEARIFVRKLKFNSHDEFRKYLKANEINIPSKPWSTYKGKGWVSIGDFLGTHR
soluble fraction (log2): -2.82

HMKNLDILTPKEIEVLNLVAKGYSNSKISKELDIAEVTVKKHIGSMFQKLDVKDRLSLALIL
soluble fraction (log2): -0.118

HMDFTPDQIARLDDIISRYKDKPGGLIPVLEEAQVALEYLPIGVQKRIAKGLNLPLSRVYGVVTFYSFFTM
soluble fraction (log2): -0.0911

HMQTKNYVYFNNTENWSTVNVYVWSSKDSTYMSWPGKAMESIGNNTYRFELPNGAEYAIFNNGSAQTVD
soluble fraction (log2): -0.137

HMPELPPHELLRALMVEHDIKQSELPEVGPQPVVSDVLAGKRALNLRQVAALAARFHVPMEVFT
soluble fraction (log2): -0.153

HMTSKVTVLAVNGRITVSGKEQDETVSVYDTGGRLLYQGESDVINVPRKAMYIVTVSRKSYKVIV
soluble fraction (log2): -0.941

HMFEYDEEEYEKLGPNADLTIKSMTDWGQSLVRKGVWSESDFEEFKIMGGTAQGLRALQKVRSYY
soluble fraction (log2): -0.451

HMDTLRARQEAAYRFLSAIAGDWRNYEEANRALFAGDAARFQDLTESWPADVRDHARHLASAAFSS
soluble fraction (log2): -0.543

HMAEKNALWEEDAVYAADSSALARDGYDAIVRTDKGGKKGYLVVGTGGRERFMPLQTLVMLGYLKK
soluble fraction (log2): -0.065

HMNHNPSIARKISREIKRGAPPESLLNLARTVNDSYYRSLSFVSIAYSIKGKKSKELFEEAISNLT
soluble fraction (log2): -0.161

HMNMGKRFKELRKERKFTQQQLADRIGLAPSAISSYESGARYPSYDVLIKYSKIFHVTTDYLLG
soluble fraction (log2): -2.81
